Measurements: article PMC11134719

Legend:
[1] = biological target: angiotensin-converting enzyme 2 (ACE2) (human (endogenous in HUVECs and HMEC-1)) (UniProt Q9BYF1)
[2] = biological target: Toll-like receptor 4 (TLR4) (human (endogenous in HUVECs and HMEC-1)) (UniProt O00206)
Chain of UniProt O00206 (O00206 24-839): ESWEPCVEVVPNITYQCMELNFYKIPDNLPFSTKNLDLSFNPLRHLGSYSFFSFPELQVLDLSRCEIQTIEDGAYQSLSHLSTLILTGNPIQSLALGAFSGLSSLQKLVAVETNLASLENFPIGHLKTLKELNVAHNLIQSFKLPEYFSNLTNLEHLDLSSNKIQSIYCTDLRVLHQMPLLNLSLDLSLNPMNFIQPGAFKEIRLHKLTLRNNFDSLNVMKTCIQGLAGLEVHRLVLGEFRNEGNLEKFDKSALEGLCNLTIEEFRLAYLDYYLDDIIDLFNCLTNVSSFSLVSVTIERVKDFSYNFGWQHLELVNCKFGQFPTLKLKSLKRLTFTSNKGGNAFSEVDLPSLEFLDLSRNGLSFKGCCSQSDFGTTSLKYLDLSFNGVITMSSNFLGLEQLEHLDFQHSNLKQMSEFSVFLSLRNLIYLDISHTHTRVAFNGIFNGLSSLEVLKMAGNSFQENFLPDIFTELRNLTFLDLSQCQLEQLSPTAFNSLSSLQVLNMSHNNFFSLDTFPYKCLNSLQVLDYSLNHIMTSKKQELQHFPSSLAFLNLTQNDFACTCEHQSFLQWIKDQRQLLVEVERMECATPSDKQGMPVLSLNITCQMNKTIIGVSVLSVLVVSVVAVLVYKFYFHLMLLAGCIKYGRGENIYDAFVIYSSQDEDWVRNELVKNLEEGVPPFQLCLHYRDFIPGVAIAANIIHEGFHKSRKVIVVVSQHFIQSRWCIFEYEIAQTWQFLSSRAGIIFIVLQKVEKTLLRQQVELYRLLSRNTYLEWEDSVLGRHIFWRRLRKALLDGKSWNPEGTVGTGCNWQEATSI

Chain of UniProt Q9BYF1 (Q9BYF1 18-805): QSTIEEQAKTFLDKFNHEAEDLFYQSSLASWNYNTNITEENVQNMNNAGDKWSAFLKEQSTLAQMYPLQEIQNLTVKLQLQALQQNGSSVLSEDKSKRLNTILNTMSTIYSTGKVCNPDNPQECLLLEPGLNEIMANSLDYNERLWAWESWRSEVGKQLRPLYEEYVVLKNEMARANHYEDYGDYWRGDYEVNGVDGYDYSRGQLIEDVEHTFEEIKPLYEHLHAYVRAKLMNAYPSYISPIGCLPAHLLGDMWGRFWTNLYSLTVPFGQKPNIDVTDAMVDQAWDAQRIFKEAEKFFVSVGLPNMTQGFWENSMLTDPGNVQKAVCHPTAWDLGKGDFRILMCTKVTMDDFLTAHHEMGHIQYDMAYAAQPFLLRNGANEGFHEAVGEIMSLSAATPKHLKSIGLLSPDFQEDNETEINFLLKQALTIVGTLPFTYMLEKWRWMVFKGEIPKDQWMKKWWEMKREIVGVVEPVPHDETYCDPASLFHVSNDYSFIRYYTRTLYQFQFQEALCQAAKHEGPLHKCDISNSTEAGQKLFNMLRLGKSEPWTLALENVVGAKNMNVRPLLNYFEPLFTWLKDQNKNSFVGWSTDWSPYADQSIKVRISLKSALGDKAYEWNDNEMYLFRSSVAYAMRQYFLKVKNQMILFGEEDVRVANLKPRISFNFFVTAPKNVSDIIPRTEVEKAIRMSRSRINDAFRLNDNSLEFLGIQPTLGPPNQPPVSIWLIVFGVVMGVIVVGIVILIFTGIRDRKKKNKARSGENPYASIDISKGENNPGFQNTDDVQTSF

Substance: 2019-nCoV S1 Protein (SARS-CoV-2 Spike protein) (domain or fragment)
- decrease of the ACE2 surface protein level (Western blot of the cell surface fraction), 0.5 µg/mL S protein for 48 h [1]: 60%
- TLR4 surface protein level by Western blot, fold over nontreated endothelial cells, 0.5 µg/mL S protein for 48 h [2]: 1.7 fold
- TLR4 surface protein level by immunostaining, fold over nontreated endothelial cells, 0.5 µg/mL S protein for 48 h [2]: 1.4 fold
